Reference: patent US20060147995A1 (UNILEVER PATENT HOLDINGS B V, published 2006)

Target: T1, bovine serum albumin (bovine, UniProt P02769 25-607)
T1 construct: Unconjugated carrier protein used as a control antigen; also called BSA
Assay: ELISA of soluble HC-V-myc supernatant on immobilised antigens, anti-myc detection
Method: Commercially available strains such as TOPIOF (stratagene) and HB2151 (Pharmacia) may alternatively be used. Two transformants of each clone were pre-grown in 10 ml 2TY/Ampicillin/Glucose. After 3-4 hours of growth at 37° C. (OD₆₀₀=0.5), the cells were pelleted by centrifugation and resuspended in 5 ml 2TY/Ampicillin/IPTG (0.1 mM). After 24 hours of incubation at 25° C. the cultures were centrifuged, and the supernatants were analysed for the production of antigen binding activity in essential the same way as described in Example 3. In this case, however, the presence of specifically bound HC-V fragments was detected by incubation with monoclonal anti-myc antibodies, followed by incubation with poly-clonal rabbit-anti-mouse conjugate with alkaline phosphatase.
Another three clones (nR3, nR4 and nR8) were specific for RR6-BSA, but the signals observed were very low. […] This was confirmed by analysis of the supernatants on Western blots (FIG. 3B). The remaining 3 clones (nR6, nR9 and nR10) gave significant signals over background on RR6-BSA, BSA and E3G-OVA (FIG. 3A). It would appear that these three ‘sticky’ clones bind to immobilised proteins in general.

T1 sequence (P02769 25-607 limits assumed): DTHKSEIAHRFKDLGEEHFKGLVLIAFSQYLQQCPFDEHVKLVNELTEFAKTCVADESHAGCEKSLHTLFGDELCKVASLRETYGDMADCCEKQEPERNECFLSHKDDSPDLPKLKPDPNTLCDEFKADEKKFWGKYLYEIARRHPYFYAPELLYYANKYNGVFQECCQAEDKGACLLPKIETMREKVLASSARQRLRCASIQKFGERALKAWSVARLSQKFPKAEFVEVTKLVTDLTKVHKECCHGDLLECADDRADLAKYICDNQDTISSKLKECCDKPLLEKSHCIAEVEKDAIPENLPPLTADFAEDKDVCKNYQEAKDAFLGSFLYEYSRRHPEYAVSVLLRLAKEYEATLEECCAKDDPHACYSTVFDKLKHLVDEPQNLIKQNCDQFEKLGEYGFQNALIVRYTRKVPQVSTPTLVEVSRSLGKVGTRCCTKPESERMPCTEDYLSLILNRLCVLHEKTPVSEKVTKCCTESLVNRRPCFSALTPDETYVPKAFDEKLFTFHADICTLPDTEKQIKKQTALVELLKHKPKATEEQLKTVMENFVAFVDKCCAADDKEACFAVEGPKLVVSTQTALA

B1: nR11 (VHH)
VHH: QVQLQESGGGLVQPGDFVRLSCAASRRASSTYAVGWFRQAPGKEREFVGRIHRGGGSTYYADSVKGRFTISRDNTQNTVYLQMNSLKPEDTAVYYCNVRSYWGQGTQVTVSS
notes: Llama HC-V tested as soluble HC-V-myc in crude culture supernatant; also called anti-RR6 HC-V fragment nR11; HC-V-myc
binding result: no binding
